Source: the supplement of paper PMC12042874
± gives the uncertainty stated by the source.

experiment: amyloid nucleation score (Sup35N fusion, yeast selection) (log enrichment); library NNK2; higher = more nucleation; inactive = no reads after selection
How it was run: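 Peptides of 20 random codons, each fused to Sup35N, were expressed in psi-negative yeast. Cells were induced with 100 μM copper sulfate for 24 hours and grown 7 days at 30°C on medium lacking adenine and uracil, and plasmid inserts before and after selection were Illumina-sequenced. Nucleation scores are DiMSum log enrichments of output over input reads, centred on the mode score of non-aggregating sequences, and sequences under 100 input reads were excluded.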

| Substance | amyloid nucleation score |
| --- | --- |
| YCNFDRIVYWPLGAAALPFR | 0.065 ± 1.1 |
| GHIFSRHVKGQLHGWEEDGP | 0.058 ± 1 |
| FVDDLARGLLVKRECSWQMQ | 0.523 ± 0.33 |
| IWFSWAVCFMITFHSHTHWW | 0.598 ± 0.57 |
| LYWYKY | -0.414 ± 0.79 |
| HERLKLAGSQSWVGKLVRQG | 0.917 ± 0.29 |
| QRYWSAYDTRNLIGE | 1.41 ± 0.47 |
| HFNSLVSGQYMWSSGKSLVP | 4.01 ± 0.061 |
| VLSVSWYAYCVSMMFIKNWA | 0.697 ± 0.19 |
| KCEYGLSVKYCVGQTGGN | 1.17 ± 0.48 |
| MHDYFLVQ | -0.487 ± 0.42 |
| DGSNIFLLV | -0.482 ± 0.56 |
| SLLESLVAMLVGVQRVVDSR | 1.03 ± 0.51 |
| GARMHCGFCMGSWWYVFWVR | 1.32 ± 0.37 |
| RLVTGGVWMDSDDSYRVIET | -0.032 ± 1.1 |
| RALVRLHSDYMLWRFMVADS | 0.399 ± 0.42 |
| RCRVFYQNHIYLGFLKCNQS | 1.42 ± 0.16 |
| SSGCS | -0.021 ± 0.5 |
| TPWSSVWSVALSGARMGPRS | 3.71 ± 0.079 |
| HRHFCSLDGA | 0.076 ± 0.29 |
| YVQVFRSLDYNHHAKS | -0.508 ± 0.39 |
| SPYHKANGHKNVARLYFRWR | 0.731 ± 0.41 |

| Substance | amyloid nucleation score |
| --- | --- |
| DMYLRIS | inactive |
| ILYGDVWLRFKRFWLSWMPA | -0.055 ± 0.55 |
| VFYNLGVHMWLWWSGIVLVR | 0.775 ± 0.74 |
| WMWPPMPLGKVAQRGLAVVC | 1.28 ± 0.22 |
| TFSVSSYRNLP | -0.06 ± 0.79 |
| DVRPDLNDKSRTVDSDVLLC | -0.846 ± 0.78 |
| YTVWEEYHRAKSSGLT | 1 ± 0.33 |
| YRARKASLTDVSSSVKVNMS | -0.026 ± 0.63 |
| CDILPDLPGRFALVRKASHN | 1.11 ± 0.45 |
| TRDCLYFVLLILIIYLFGLR | 3.12 ± 0.14 |
| LHGQVYMIQG | 2.17 ± 0.13 |
| CGQRCPKC | 3.81 ± 0.063 |
| RVSLTIYKC | 3.24 ± 0.12 |
| KGSIRCPRVFHQFRFLMG | -0.302 ± 0.74 |
| CPVAQYQG | -0.308 ± 0.21 |
| SNIGCRKIWTSLRSMDLIIG | -0.006 ± 0.65 |
| ISSLLFVETELHSVFNLWWM | -0.277 ± 0.44 |
| RECLRLDGGPMNWV | 0.192 ± 1 |
| NLSDLLFLQSTSEGLSLFSI | -0.621 ± 0.64 |
| KKSYFTSLTLLFMTPFSLSY | inactive |
| SLGEKRFACLATSCCADDCT | 0.508 ± 0.2 |
| GGGSG | 0.123 ± 1 |

| Substance | amyloid nucleation score |
| --- | --- |
| FDLCCMKYHSYHMQFI | -0.214 ± 1 |
| SSFGGGCSVCRMWGGFLLDG | 4.4 ± 0.059 |
| YLRTFAKYWNPNARQLSIMR | inactive |
| TVFFF | 2.6 ± 0.11 |
| KSVYLSIGDILAFFSIVLLY | inactive |
| WDIFICLVL | -0.063 ± 0.74 |
| MGLRCWKIIMWNYSRKLHQC | 0.031 ± 0.45 |
| IDGRDSFCQGGNRTCSKGCC | -0.303 ± 0.65 |
| MGVKPTPCRVRPPRRPGASA | 1.68 ± 0.27 |
| SKQTRYSSCGIISGLVDPFA | -0.329 ± 0.23 |
| IFVYY | -0.162 ± 0.4 |
| TSKRVFSRVESGTQVLGNEG | -0.053 ± 0.5 |
| FLGFI | -1.94 ± 1.1 |
| CMFPSVCQPLTGMTVYGNST | -0.084 ± 0.48 |
| NWVSIEHNYIFVLRYPENAS | 8.465 ± 0.042 |
| LKWDFRIYTTSWAAKKQGME | 0.095 ± 0.37 |
| RSFYIAVSYMGCICIMPIRR | 2.89 ± 0.13 |
| CNWLYF | 0.395 ± 0.8 |
| WVFNNELCNDYEHWLWARFD | -0.295 ± 0.56 |
| NISFADSCMNFIRYY | 2.4 ± 0.12 |
| VSNKDVLSQDMAKLIWW | 0.81 ± 0.22 |
| IVYKGFLREN | inactive |

| Substance | amyloid nucleation score |
| --- | --- |
| LYGRYANERWRLNSLDEKVT | 0.881 ± 0.45 |
| VVVRNGLLNISFKVNRCGFG | 8.662 ± 0.055 |
| TVSQFLFN | -0.559 ± 0.76 |
| KYSCTLVPFLLARFDLGSWG | -0.112 ± 0.34 |
| SLADDSGNRT | -0.289 ± 0.43 |
| YVNNLGRFCLLYRPWGMVNS | -0.196 ± 1.1 |
| KSMLLMIMSSFGSDIWHITS | -0.337 ± 1.1 |
| TVCWSLFDDCSFYFRCNAFE | 8.42 ± 0.042 |
| IVVFSGVQVRGHCWNVKGAN | 7.64 ± 0.069 |
| DFGYYREIHDEEECSCLKVY | -0.981 ± 0.78 |
| GSPGIETGIAAEEWNGGW | 0.865 ± 0.5 |
| ISFWYHSKTS | 0.318 ± 0.57 |
| VSCCYRFSASNQIIVTPFSS | 8.119 ± 0.026 |
| NYDSSDLTLFDVSRRPLLER | inactive |
| VLNSPVFFHSYRSMVSLM | -0.117 ± 0.3 |
| WVYNLALCNSRVIKG | -0.51 ± 0.48 |
| LVYWRQYYCKGRVRLLC | inactive |
| TDGDRFSCRVKWNRHEDQRT | 0.463 ± 0.24 |
| SDNMFSWRCLKDTWLDRRWA | 0.294 ± 0.22 |
| LMSNINVSIYIFG | 7.782 ± 0.063 |
